According to US20040002075A1, “Heat-resistant cysteine synthase” (priority 2001, published 2004):

What was measured:
[1] = Optimal temperature, cysteine synthase activity assaying method (2); assay type: biochemical; settings: 4 minutes reaction, FIG. 2
Experimental: The optimal temperature was determined by the following assaying method (2) for cysteine synthase activity. Assaying Method of Cysteine Synthase Activity (2) Purified enzyme was added to 50 mM potassium phosphate buffer (pH 7.5 or 7.0) containing 20 mM O-acetylserine and 2 mM sodium sulfide as substrates, and 0.2 mM pyridoxal 5′-phosphate so as to establish an enzyme concentration of 0.8 μg/mL, the reaction was brought about for 4 minutes, and the amount of cysteine synthesized was determined by the ninhydrin method to assay the enzyme activity.

[2] = Heat resistance, residual activity after incubation, assaying method (1); assay type: physicochemical; settings: for residual activity: 0.3 mg/mL enzyme in 50 mM potassium phosphate buffer (pH 6.7), FIG. 3
Experimental: The optimal pH was determined by the following assaying method (1) for cysteine synthase activity. Assaying Method of Cysteine Synthase Activity (1) Four enzyme solution samples were prepared by adding cysteine synthase to 50 mM potassium phosphate buffer (pH 6.7) containing 1 mM EDTA and 0.2 mM pyridoxal 5′-phosphate so as to obtain an enzyme concentration of 0.3 mg/mL. The samples were incubated for 6 hours at 4° C., 80° C., and 100° C., respectively, to assay residual activity.

B1: cysteine synthase: Heat-resistant cysteine synthase (O-acetylserine sulfhydrylase) of hyperthermophilic archaea Aeropyrum pernix K1, SEQ ID NO: 2, produced recombinantly in E. coli (protein)
chain: VALADISGYLDVLDSVRGFSYLENAREVLRSGEARCLGNPRSEPEYVKALYVIGASRIPVGDGCSHTLEELGVFDISVPGEMVFPSPLDFFERGKPTPLVRSRLQLPNGVRVWLKLEWYNPFSLSVKDRPAVEIISRLSRRVEKGSLVADATSSNFGVALSAVARLYGYRARVYLPGAAEEFGKLLPRLLGAQVIVDPEAPSTVHLLPRVMKDSKNEGFVHVNQFYNDANFEAHMRGTAREIFVQSRRGGLALRGVAGSLGTSGHMSAAAFYLQSVDPSIRAVLVQPAQGDSIPGIRRVETGMLWINMLDISYTLAEVTLEEAMEAVVEVARSDGLVIGPSGGAAVKALAKKAAEGDLEPGDYVVVVPDTGFKYLSLVQNALEGAGDSV
modifications: Aeropyrum pernix K1
For B1, which optimal temperature ([1]; 50 mM potassium phosphate buffer pH 7.0) is on record?
Its optimal temperature is “about 60 °C”.

What about the optimal temperature ([1]; 50 mM potassium phosphate buffer pH 7.5) of the same molecule?
The optimal temperature was “about 50 °C”.

And the residual activity ([2]; after 6 hours of incubation at 80° C.)?
Its residual activity is “about 97%”.

What about the residual activity ([2]; after 6 hours of incubation at 100° C.) of the same molecule?
The residual activity was “about 85%”.

What about the “activity of the enzyme after heat-treatment” value ([2]; heat-treatment at 80° C. for 6 hours) of the same molecule?
The value was “substantially unimpaired”.
